Among the data in paper PMC314469, “Protein Interaction Networks by Proteome Peptide Scanning” (PLoS Biology, 2004) are normalised SPOT signal, Boehringer light units (BLU); mean over the file's lines of this peptide values, retold here.

T1: Boi2 SH3 (BOI2_YEAST), P39969
T1 chain: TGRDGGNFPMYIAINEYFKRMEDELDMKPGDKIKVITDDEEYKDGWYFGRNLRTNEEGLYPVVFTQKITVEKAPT

T2: Boi1 SH3 (BOI1_YEAST), P38041
T2 chain: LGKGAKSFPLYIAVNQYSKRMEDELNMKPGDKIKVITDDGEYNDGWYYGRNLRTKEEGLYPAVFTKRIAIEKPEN

T3: Yfr024 SH3 (LSB3_YEAST), P43603
T3 chain: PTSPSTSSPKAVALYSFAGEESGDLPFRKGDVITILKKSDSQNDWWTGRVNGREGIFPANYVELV

T4: Yhr016c SH3 (YSC84_YEAST), P32793
T4 chain: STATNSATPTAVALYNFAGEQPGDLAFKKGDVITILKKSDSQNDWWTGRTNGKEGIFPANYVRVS

T5: Rvs167 SH3 (RV167_YEAST), P39743
T5 chain: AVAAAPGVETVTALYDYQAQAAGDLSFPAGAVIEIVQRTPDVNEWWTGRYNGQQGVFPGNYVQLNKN

B1: YLL021W 1085-1098 (peptide)
chain: KNSPLAPIKKNVEL
B2: YGL085W 143-156 (peptide)
chain: KNLPTIPIRLSGID
B3: YDR026C 223-236 (peptide)
chain: KRTPKIPEKDVKSD
B4: YMR044W 286-299 (peptide)
chain: KPKPPKPIKYHFED
B5: YDL027C 313-326 (peptide)
chain: KNLPLNPSKKLEGK
B6: YBL101C 851-864 (peptide)
chain: KPDPESPSKLRHYE
B7: YLL015W 63-76 (peptide)
chain: KNFPTLPSKINSRH
B8: YPR171W 469-482 (peptide)
chain: KRPPTAPQRKISLP

One experiment has as its target T1, Boi2 SH3 (BOI2_YEAST), P39969. Kind of experiment: SPOT array.
B1 displayed a normalised SPOT signal, Boehringer light units (BLU); mean over the file's lines of this peptide of 33.5.
Same read-out and setting: the figure for B2 is 45.2; for B3 it is 47.6; for B4 it is 52.1.
On the same count and under the same terms, as for B5, the figure is 54.4; as for B6, 58.5; as for B7, 25.8.
Same read-out and setting: as for B8, the figure is 51.3.

The target in a further experiment is T2, Boi1 SH3 (BOI1_YEAST), P38041. Kind of experiment: SPOT array.
Molecule B1 came in with a normalised SPOT signal, Boehringer light units (BLU); mean over the file's lines of this peptide of 180.
The same measure, in the same setting: as for B2, the figure is 2120; as for B3, 151.
Same read-out and setting: as for B4, the figure is 154.
For the molecule B5, the normalised SPOT signal, Boehringer light units (BLU); mean over the file's lines of this peptide was 309.
Consider B6, for which the normalised SPOT signal, Boehringer light units (BLU); mean over the file's lines of this peptide was determined as 69.8.
On the same count and under the same terms, as for B7, the figure is 244; as for B8, 285.

For a further experiment, the target named is T3, Yfr024 SH3 (LSB3_YEAST), P43603. As to the kind of experiment: SPOT array.
The molecule B1 had a normalised SPOT signal, Boehringer light units (BLU); mean over the file's lines of this peptide of 252.
Still for that read-out and setting: the figure for B2 is 10800.
On the same count and under the same terms, the figure for B3 is 342.
The same measure, in the same setting: the figure for B4 is 249; for B5 it is 98.6; for B6 it is 41.3.
B7 showed a normalised SPOT signal, Boehringer light units (BLU); mean over the file's lines of this peptide of 9910.
B8 came in with a normalised SPOT signal, Boehringer light units (BLU); mean over the file's lines of this peptide of 8630.

The target in a further experiment is T4, Yhr016c SH3 (YSC84_YEAST), P32793. As to the kind of experiment: SPOT array.
With B1, the normalised SPOT signal, Boehringer light units (BLU); mean over the file's lines of this peptide worked out at 15.7.
For the molecule B2, the normalised SPOT signal, Boehringer light units (BLU); mean over the file's lines of this peptide worked out at 3830.
As for B3, the normalised SPOT signal, Boehringer light units (BLU); mean over the file's lines of this peptide turned out to be 187.
On the same count and under the same terms, as for B4, the figure is 124; as for B5, 61.3; as for B6, 241.
On the same count and under the same terms, as for B7, the figure is 151; as for B8, 1820.

In another experiment the target is T5, Rvs167 SH3 (RV167_YEAST), P39743. As to the kind of experiment: SPOT array.
For B1, the normalised SPOT signal, Boehringer light units (BLU); mean over the file's lines of this peptide is 26.7.
Still for that read-out and setting: the figure for B2 is 29100; for B3 it is 242; for B4 it is 6.8.
Same read-out and setting: the figure for B5 is 67.9.
Molecule B6 gave a normalised SPOT signal, Boehringer light units (BLU); mean over the file's lines of this peptide of 22.9.
The same measure, in the same setting: the figure for B7 is 35.2; for B8 it is 605.
